A short description of the data set: soluble on expression in E. coli; label from the status in PepcDB or PDB records.
With “MLGMHFTPVEVFHRYIMPQIRDHLNDYLWVDMFCGEGNLILPMLDYIDRDRRGEFFRDHIMCFDIDESAVERSIENAMKYGIPQEMARRNIRTRDTLMDYPVLSGRYPVFHITNPPYLYLGYIRKRKDARRHQEYFEGQNDGYQDLYQIAMMNDLRHGIGNMIYIIPSNFFFSDAGTRKIREDFLKIYRIGSCYIFERRIFPSTGTNVMILSFQRSQSPVESIEFDAIRINKHEEKKRYVLRSENNFKPDNEYQDYIRAHFRPDHPVVKFYLTYDEIGKNPGNNRVVLVNSKEYRHGEYERETFSVNDDLYARIKSNPLYVRTVDKGTREGRSGIYSIIRDFGADGIFVKGPTYRTSPIQIFIDPPLSANEALKLMEIFNRTLNDLRERSDSDFMTTYKYSDSAAYVRKYLGLKQVRGIMSTISLEDLKDGASSTDL”, the “soluble on expression in E. coli” value was “not soluble”.
With “MDMERNRLYFFYKRDDKLIERVKPLIELAERGPFVVVDDYREANIIVSIGDDGAFLQAVRQTGFLPDRLYVGVSVLPARGFYCDFHIDDIDHMVEAAKNWKLEVRRYPIIEVTIDGAASFFCLNECSIRSQIIKTMAIDVFIDDLHFETFRGDGIIVSTPTGSTGYNKSVHGAVVDPLLPCFQVSELASLNSNRYRTLGSPFILSGSRTLTLKMSEETSHFPIIGLDNEALSIQHIERIDIRLSDRVVKTVRLKDNSFWDKVKRVFL” the entry was “not soluble”; with “MNFFSLHPNVYATGRPKGLIGMLENVWVSNHTPGEGTLYLISGFSNYNGGVRFYETFTEHINQGGRVIAILGGSTSQRLSSRQVVEELLNRGVEVHIINRKRILHAKLYGTSNNLGESLVVSSGNFTGPGMSQNIEASLLLDNNTTQSMGFSWNDMISEMLNQNWHIHNMTNATDASPGWNLLYDERTTNLTLDETERVTLIVTLGHADTARIQAAPGTTAGQGTQYFWLSKDSYDFFPPLTIRNRRGTKATYSSLINMNYIDINYTDTQCRVTFEAENNFDFRLGTGKLRYTGVAKSNDIAAITRVGDSDYELRIIKQGTPEHSQLDPYAVSFIGNRGKRFGYISNEEFGRIIGVTF”, “soluble”; with “MEGSEEHSTDGEISSSEEEDEDPTPAHAIPARPSSVVITPTSASFVIPRKKWDLQDKTVTLHRSPLCRDEDEKEETGNSSYTRGHKRRRGEVHGCTDESYGKRRHLPPGARAPRAPRAPRVPRAPRSPRAPRSNRATRGPRSESRGAGRSTRKQARQERSQRPLPNKPWFDMSLVKPVSKITFVTLPSPLASLTLEPIQDPFLQSMLAVAAHPEIGAWQKVQPRHELRRSYKTLREFFTKSTNKDTWLDARMQAIQNAGLCTLVAMLEETIFWLQEITYHGDLPLAPAEDILLACAMSLSKVILTKLKELAPCFLPNTRDYNFVKQLFYITCATARQNKVVETLSSSYVKQPLCLLAAYAAVAPAYINANCRRRHDEVEFLGHYIKNYNPGTLSSLLTEAVETHTRDCRSASCSRLVRAILSPGTGSLGLFFVPGLNQ”, “soluble”.
Then “MGSDKIHHHHHHMVLRNSEGTHVHAADADQRPRAICLSTMTTNMQIVTLFRDAPDFAEPGNFEAHLVRLWSVIEALSGKDDRLGQWYLTGSTEEEALLYPAFEASGAPSTALLAVLKTKYQGKRNRAKVVGLWNGHNNPTDGATLKLSIDTGPLPSEVAIDPPKPRDAETGLAPLAAIQGIVSLLVATYAPAVVSVAPMDYFEKKVFDDKPGVGWMLYLPKVITQQQVPEARALIPVPAKGKQTGTIIVSVTDAPFSVDNPEHVAIANRIEIRLVDQDLLPAYVDI”, with “not soluble”.
With “AHHHHHHGSYLEEKDGIKFYSLNKLEKEGFDVHSLPYSLRILAENILRHLNNGVVSYEHIENIFERKGDIPFYPARIIMQDYTGVPAIVDLAAMRDYIKEKGKDPSRVNPKIPVELVVDHSLIVLYHGTKYSLYENMKEELKANRERYSLLKWASKAFENLKIIPPGKGIIHQINVEHLARIVFLEEGIAYPDTVLGTDSHTPMVNGIGVLGWGVGGIEAEAALLGLPYFMKVPEVVGVVLEGEPSPEITPTDIVLTITEKLRKVGVVGKFLEYTGNVEALSAFDRTVIANMTPENGATVGYFPIDEETIKFIRLTRGESKAKLVEKYAKLNMLYREETPEFDKTVKIDLSKVEPSVAGPFHPEDRIRLKDLKNSFKVEKKTKIRINGGEVEIEDGIIGLAAIASCTNTSNPYNILAAALVAKKAVELGLRTKPWVKTTFTPGSRVVVKYLEKLGLLSYLEALGFHVNGYACASCIGNSGPLKREVEEVIDKGIKVAAVISGNRNFRRRVNSKIDYTYLASPPLVVVFAIAGKITIDPSEPLAYDPNGKPVYLTDILPTKEEVKKLEEVIGEELYKEAYSSLFEDSIWKDIETEESPLFKWDEKSTYVRKPPFFDLTPITDDIKGARALIVLGDRISTDDISPAGKIDPESPAGRYLLSLGVKPEELHTYGARRGNHEVMMRGTFARFKMIYWPTGEEMSVYEAAMRYKERGIPLIIIAGKQYGVGSSRDWAAKGPALLGVKAVIAESFERIHRSNLVGMGIVPLQFKDPEVRKRLTGEEVYDIIGLKDLYPGKTIKVIARKPNGEVIEFETIARVETPIEVEYIRHGGILKYALELLG” the entry was “not soluble”; with “MEDDMSVVDNIRFTFLYIEFYSMGRTWVYPESVIPYSIFRYIEKGKAELCIDGEEIIVEENQIVYIPQGCKMSCRALGESFEFYSLRFTTSVFYEGEDMLAEYYGIPRVSVNEGEDVYFKEIYKWVKKDSMVKKCFVRGNLDLLIGSLAMHGNKVDKVTGDFVETIEEKSLRDRNSKKNEQIDPRIYIVADYIILHPSEKYTPQKMAEMADLSKQRFSSLFKINMGKTPMEYVREIRLTTAARALLVSNDNINDIAYACGYEDTNYFIREFKSAFGFTPNQYRKVARE”, “not soluble”; with “MGSDKIHHHHHHMPMTNLAALSIPDLQQYAQGAVAAPFGLVLDDGSVLQSLEVVRRVPGKRLVCRGLLNGQAIYAKLFIGGQAGKYAARDKRGARWLAQARLATPTLLLESGVASQGCEALLYGAIPARNAEQVWQDLDEEGRHALALRLVEEVARHHRAGLLQTDLYLKNFLVDAQAVYTLDGDGIRQLRVFGRQRQQWDNLARLISKFDVDAVAAWLPSLLRQYVAVIGGGASDIDIMQQLIARHWRRDMRQYASKVQRSCTDVAVEEKPWHYLAINRAQDSPGVRQALATPDGLLDATSAVRLKSGNTCTVAAVEIDQRKMVIKRYNIKNFWHGLGRAWRPSRAVVSWSNAFRLQLKGIATPAAVAVLERRWLGLRREAYLLTEFMIARDAAEFYADLTIDREVKERVAQRIARLFFQLFCLQLEHGDFKATNILIRDQYPLLIDLDSMRQHACKKRFERRHARDLQRFFKNWQGDAATSQLLAAAFRAVYADGRVLDQAGIVFNQSEKDE”, “not soluble”.
With “MYKNILLGVDTQLKNEKALKEVSKLAGEGTVVTVLNAISEQDAQASIKAGVHLNKLTEERSKRLEKTRKALEDYGIDYDQIIVRGNAKEELLKHANSGKYEIVVLSNRKAEDKKKFVLGSVSHKVAKRATIPVLIVK”, the “soluble on expression in E. coli” value is recorded as “not soluble”.
Regarding “MSLTDVSRILKEARDQGRLTTLDYANLIFDDFMELHGDRHFSDDGAIVGGLAYLAGQPVTVIGIQKGKNLQDNLARNFGQPNPEGYRKALRLMKQAEKFGRPVVTFINTAGAYPGVGAEERGQGEAIAKNLMEMSDLKVPIIAIIIGEGGSGGALALAVADQVWMLENTMYAVLSPEGFASILWKDGSRATEAAELMKITAGELYKMGIVDRIIPEHGYFSSEIVDIIKANLIEQITSLQAKPLDQLLDERYQRFRKYEGHHHHHH”, the “soluble on expression in E. coli” value was “not soluble”.
With “NKDGPVCLQVKPCTPEFYQTHFQLAYRLQSRPRGLALVLSNVHFTGEKELEFRSGGDVDHSTLVTLFKLLGYDVHVLCDQTAQEMQEKLQNFAQLPAHRVTDSCIVALLSHGVEGAIYGVDGKLLQLQEVFQLFDNANCPSLQNKPKMFFIQACRGDETDRGVDQQD” the entry was “soluble”; with “MKEFIIKANKAVTNGEINLKDLPGSSGRLDLLCRCVNSAFFLSHDMRRDTIFYSVNYGSPNPPVALKFVGSELKRVSPDERSIALFIKKALEKDASELWKESTSGIYSSKREFRDIILEKKNEGKRIFYLHLNGKPLEDFEFKNQDDEDFLFVLGDHIGIGDEDEEFLEEIGAEKISLSPLELHADHCIILVHNILDRLK”, “not soluble”.

These data come from the DeepSol protein solubility set.
